How the values were obtained:
[1] = target: Camelus dromedarius mu-class glutathione S-transferase (CdGSTM1) (Camelus dromedarius); assay: SEC; Superdex 200 Increase, 0.25 mg CdGSTM1 equilibrated at pH 4.0, buffer with 150 mM NaCl at pH 4.0
[2] = target: Camelus dromedarius mu-class glutathione S-transferase (CdGSTM1) (Camelus dromedarius); assay: cross-linking; 0.25% glutaraldehyde, room temperature, 15 min, CdGSTM1 0.5 mg/mL at pH 4.0, before and after SEC; SDS-PAGE
[3] = target: Camelus dromedarius mu-class glutathione S-transferase (CdGSTM1) (Camelus dromedarius); assay: cross-linking; 0.25% glutaraldehyde, room temperature, 15 min, CdGSTM1 0.5 mg/mL at pH 7.0, before and after SEC; SDS-PAGE
[4] = target: Camelus dromedarius mu-class glutathione S-transferase (CdGSTM1) (Camelus dromedarius); assay: SEC; analytical Superdex 200 Increase 10/300 GL, calibrated; CdGSTM1 2.5 mg/mL (also 0.25 mg loaded) in 50 mM phosphate buffer, 150 mM NaCl, pH 7.0

stoichiometry N [1]: 2
stoichiometry N [2]: 2
stoichiometry N [3]: 2
stoichiometry N [4]: 2
Substance: Camelus dromedarius mu-class glutathione S-transferase (CdGSTM1) (enzyme)

— publication PMC6179282
